Measurements published in publication PMC5683418 (Molecular cell, 2017).

Target: T1, highly purified Flag-HA-tagged NRF2 (human, UniProt Q16236 1-605)
T1 sequence (looked up): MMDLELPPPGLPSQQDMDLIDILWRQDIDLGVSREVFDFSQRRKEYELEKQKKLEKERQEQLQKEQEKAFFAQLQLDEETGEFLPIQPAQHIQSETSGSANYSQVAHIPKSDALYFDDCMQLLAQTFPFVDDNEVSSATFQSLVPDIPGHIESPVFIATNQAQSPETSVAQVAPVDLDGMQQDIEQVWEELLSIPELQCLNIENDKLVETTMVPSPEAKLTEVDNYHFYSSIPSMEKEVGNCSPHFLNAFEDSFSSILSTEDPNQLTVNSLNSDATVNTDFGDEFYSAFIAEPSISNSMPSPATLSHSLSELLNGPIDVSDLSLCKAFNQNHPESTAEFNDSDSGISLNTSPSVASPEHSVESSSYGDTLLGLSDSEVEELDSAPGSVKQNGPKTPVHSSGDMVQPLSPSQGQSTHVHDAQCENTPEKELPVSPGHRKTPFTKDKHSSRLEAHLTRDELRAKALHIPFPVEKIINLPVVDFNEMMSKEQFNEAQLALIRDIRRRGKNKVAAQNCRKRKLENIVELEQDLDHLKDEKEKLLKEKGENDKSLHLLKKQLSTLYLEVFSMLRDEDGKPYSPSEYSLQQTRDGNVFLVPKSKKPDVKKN
Assay: pull-down

binding result: binds
B1: GST-ARF (1–64) (domain or fragment, UniProt Q8N726 1-64, looked up)
chain: MVRRFLVTLRIRRACGPPRVRVFVVHIPRLTGEWAAPGAPAAVALVLMLLRSQRLGQQPLPRRP
